Data taken from patent publication US20260265316A1, “IMMUNOTHERAPEUTIC METHODS, COMPOUNDS, AND COMPOSITIONS FOR TREATING OR PREVENTING CELIAC DISEASE” (DBV Technologies, priority 2023, published 2026).
Where a chain is given by its changes, count along the chain named.

B1: QLQPFPQPELPYPQPELPYPQPELPYPQPQPKKKKPQPEQPEQPFPEQPQKKKKPQQPFPQPEQPFPWQPQKKKKPSGEGSFQPSQENPQ (peptide)
chain: QLQPFPQPELPYPQPELPYPQPELPYPQPQPKKKKPQPEQPEQPFPEQPQKKKKPQQPFPQPEQPFPWQPQKKKKPSGEGSFQPSQENPQ
B2: QLQPFPQPELPYPQPELPYPQPELPYPQPQPGPRRKKPQPEQPEQPFPEQPQGARRKKPQQPFPQPEQPFPWQPQGPKKPSGEGSFQPSQENPQ (peptide)
chain: QLQPFPQPELPYPQPELPYPQPELPYPQPQPGPRRKKPQPEQPEQPFPEQPQGARRKKPQQPFPQPEQPFPWQPQGPKKPSGEGSFQPSQENPQ
B3: QLQPFPQPELPYPQPELPYPQPELPYPQPQPGPRRKKPQPEQPEQPFPEQPQGCRRKKPQQPFPQPEQPFPWQPQGPKKPSGEGSFQPSQENPQ (peptide)
chain: B2 chain with A54C

How the values were obtained:
Type in all cases: cell-based, human
[1] = system: circulating gluten-specific CD4+ T cells in whole blood of HLA-DQ8+ CeD patients; assay: Whole blood IL-2 cytokine release assay, HLA-DQ8+ CeD participants; conditions: for IL-2 response (in words): HLA-DQ8+ donors, whole blood; for IL-2 response (in words) / mean IL-2 titer: 24 hours; for mean IL-2 titer fold higher than Nex01/02 peptide mix / mean IL-2 titer: HLA-DQ8+ participants, 10 μM
From the text: FIGS. 11A-11B are graphs depicting the evaluation of the ability of various molarities of three gliadin polypeptides (Cv6, Av6, and 4K), two peptide mixes containing either the four individual building blocks BB1, BB2a, BB3a and BB4a (BB1-4a) or two Nexvax2 peptides (Nex01/02), and six individual building blocks or peptides (BB1, BB2a, BB3a, BB4a, Nex01, and Nex02) to restimulate gluten-specific T cell collected from HLA-DQ8+ CeD patients using a whole blood IL-2 release assay. The whole blood cytokine release assay was performed in four HLA-DQ8+ participants with biopsy-confirmed celiac disease as described in FIG. 10. Data are expressed in femtogram/mL of plasma (A), or as fold change from the negative control (PBS 1×) (B). Symbols represent individual participants (patient ID); bars represent the median+interquartile range of individual values.
The overarching objective of this assay was to validate that the polypeptide constructs (Cv6, Av6, and 4K) can be recognized and processed by human APCs, and they can then promote the activation of gluten-specific effector/memory CD4^+ T cells in CeD patients. A Cytokine Release Assay (CRA) was used (previously described in the literature: Anderson et al., Clinical & Experimental Immunology, 2021 June; 204(3): 321-334; and in Hardy et al., Frontiers in Immunology, 2021, Vol. 12, Article 661662, the entire contents of each of which are incorporated by reference herein). This assay quantifies IL-2 produced by circulating gluten-specific CD4^+ T cells present in the blood of CeD patients upon in vitro stimulation with gluten-derived antigens. Due to the extremely high sensitivity of this CRA, no oral exposure to gluten was required prior to blood sampling.
Informed consent was obtained from all subjects prior to blood collection.
Unfractionated blood (225 μL per well of a 96-well plate) was then rapidly restimulated for 24 hours with each of three of the polypeptide constructs provided herein (SEQ ID NO:23 wherein X is C [Cv6, i.e., SEQ ID NO:49], SEQ ID NO:23 wherein X is A [Av6, i.e., SEQ ID NO:50], and SEQ ID NO:46 [4K]) and with each of four individual building blocks (SEQ ID NO:15 wherein Z is E [BB1], SEQ ID NO:16 wherein Z is E [BB2a], SEQ ID NO:20 wherein Z is E [BB3a], and SEQ ID NO:18 wherein Z is E [BB4a]). The concentrations of the polypeptide constructs ranged from 0.5 to 10 micromolar, and the concentration for each individual building block was 10 micromolar. […] These two peptides comprise an N-terminal pyroglutamate and a C-terminal amide. Nex01 and Nex02 were the two gliadin peptides used in the Nexvax2 immunotherapeutic vaccine that was intended to restore immune tolerance to gluten in HLA-DQ2.5+ CeD patients. A positive control consisted of blood cells stimulated with phytohemagglutinin (PHA) (10 μg/mL) which activates all T cells regardless of their antigen specificity (i.e., a polyclonal activator). Negative controls consisted of cells treated with buffer only (PBS 1×).
After incubation for 24 hours at 37° C. and 5% CO2, plasma was separated from whole blood by centrifugation. Plasma was collected from each well and replicates (n=6 replicates per test) pooled. All plasma samples were frozen at −80° C. until analysis. Single plasma aliquots (100 μL) were thawed and analyzed in duplicate using MSD IL-2 S-plex according to the manufacturer's instructions.

[2] = system: 0482 1.2 clone (DQ8-glia-α-specific); assay: IFN-γ ELISpot T cell clone assay; conditions: 10 μM
Description: (§1) FIGS. 12A-12E are graphs depicting the evaluation of the ability of gliadin polypeptides (Cv6, Av6, and 4K) to reactivate gluten-specific T cell clones isolated from CeD patients and specific for a selection of key gliadin epitopes (i.e., DQ2.5-glia-α1a (A), DQ2.5-glia-α2 (B), DQ2.5-glia-ω1 […], DQ2.5-glia-ω2 (D), and DQ8-glia-α1 […]), by IFN-γ ELISpot assay. The three gliadin polypeptide constructs Cv6, Av6, and 4K were incubated overnight at three different molarities ([…]) with irradiated PBMCs, and five T-cell clones originally isolated from HLA-DQ2^+ or HLA-DQ8^+ CeD patients. T cells clones were specific for either DQ2.5-glia-α1a (A), DQ2.5-glia-α2 (B), DQ2.5-glia-ω1 (C), DQ2.5-glia-ω2 (D) or DQ8-glia-α1 (E) epitopes. Spots were detected with IFN-γ-biotinylated antibody and streptavidin-ALP complex and counted using an AID ELISpot reader. Data are expressed as mean Spot Forming Units (SFU) per well of 3 replicate wells+SD.
(§2) For that purpose, five individual CD4^+ T cell clones specific for a selection of key gliadin epitopes have been used. The experimental readout was the enumeration of IFN-γ producing T-cells (Th1 cells) by ELISpot, as previously described: Hardy M Y, et al., J Autoimmun 2015; 56:56-65; Anderson et al., Clinical & Experimental Immunology, 2021, Issue 3, June 2021, Pages 321-334, the entire contents of each of which are incorporated by reference herein.
(§3) For this in vitro assay, irradiated peripheral blood mononuclear cells (PBMCs) isolated from the blood of healthy donors matching for HLA-DQ2.5 or HLA-DQ8 were used as a source of APCs.
(§4) As a positive control for antigen-specific T cell stimulation, the cognate gliadin-derived immunogenic peptide known to activate each CD4^+ T cell clone was used, as described in the literature (Sollid et al., Immunogenetics, 2020 February; 72(1-2):85-88; Tye-Din et al., Sci Transl Med, 2010, Vol. 2, Issue 41, 41-51, the entire contents of each of which are incorporated by reference herein). Negative controls consisted of cells treated with a cocktail of four irrelevant peptides of the following sequence: PFPLPQP (SEQ ID NO:87), PQYQPEQ (SEQ ID NO:88), PFEPQPL (SEQ ID NO:89), and PQSYPEQ (SEQ ID NO:90).

[3] = system: 3177 2.27 (DQ2.5-glia-ω1 specific) T cell clone; assay: IFN-γ ELISpot T cell clone assay; conditions: 10 μM, 3177 2.27 clone
Description: as §1, §2, §3, §4

Molecule	IL-2 response (in words) [1]	mean IL-2 titer fold higher than Nex01/02 peptide mix [1] [fold]	mean IL-2 titer [1] [fg/mL]	mean spot forming units (IFN-γ ELISpot) [2]	mean spot forming units (IFN-γ ELISpot) [3]
H-PQPEQPEQPFPEQPQ-NH2 [BB2a]	potent IL-2 responses				
H-PSGEGSFQPSQENPQ-NH2 [BB4a]	potent IL-2 responses				
B1		15	6300	175	14
B2		9	3695	201	21
B3		11	4528	173	15
